Target: adaptor protein-2 (AP-2)
Experiment: pull-down (IP with AP-2 antibody, western blot densitometry)
Settings: HEK-293 cells transfected with GFP-V0a1 constructs; n=4; parent: est. 1.0; read off a plot

ratio to parent (arbitrary unit): 0.37
Substance: WT GFP-V0a1 (from UniProt Q93050) C25S

— PMC5344305
